According to patent US20100323955A1, “METHODS FOR TREATING OBESITY AND OBESITY RELATED DISEASES AND DISORDERS” (AMYLIN PHARMACEUTICALS, INC., priority 2007, published 2010):

Experiments:
[1] = Example 8: 24-week randomized, double-blind clinical study of pramlintide and metreleptin in overweight and obese subjects; type: in vivo, human; settings: 4-week lead-in; all subjects received pramlintide 180 then 360 mcg BID; columns name the later randomization groups
Method: To evaluate inter alia the safety, tolerability and effect of the combination of an amylin agonist (pramlintide) and a leptin (metreleptin) on changes in body weight, a 24-week, randomized, double-blind, active-drug-controlled, multicenter study was conducted under USFDA approved protocols. Secondary objectives of the study were the determination of the pharmacokinetics of pramlintide and leptin, waist circumference, rate of change in body weight, and patient reported outcomes including for example without limitation perception of well-being related to weight change and mood. The study enrolled overweight and obese subjects with defined BMI ([…]), with enrollment statistics as provided in Table 2. […] Subjects treated with pramlintide/metreleptin lost an average of 25 pounds from the start of the 24-week study compared with an average of 17 pounds for subjects treated with pramlintide alone.
In an initial lead-in phase, all subjects received dietary instructions and treatment with pramlintide at 180 mcg BID for two weeks, followed by pramlintide at 360 mcg BID for two weeks. Subjects who completed the 4-week lead-in period and who lost 2-8 percent body weight during this period were eligible to continue the study. The term “enrolled” (Table 2) refers to subjects (N=177) receiving at least one dose of pramlintide during the lead-in period. […]

[2] = Example 3: leptin effect on body weight in normal HSD versus DIO prone rats; type: in vivo, rat; settings: FIG. 9
Text: Normal, lean HSD rats were divided into two treatment groups. […] […] The DIO prone animals described herein appear resistant to the weight reducing effect of leptin.

B1: murine leptin (protein, UniProt P41160 22-167, looked up)
Leptin: VPIQKVQDDTKTLIKTIVTRINDISHTQSVSAKQRVTGLDFIPGLHPILSLSKMDQTLAVYQQVLTSLPSQNVLQIANDLENLRDLLHLLAFSKSCSLPQTSGLQKPESLDGVLEASLYSTEVVALSRLQGSLQDILQQLDVSPEC
notes: murine leptin (Peprotech, catalog#450-31)
Mean Change in Body Weight (kg) over lead-in period [1]: -3.97 kg
body weight, DIO prone animals ([2]; DIO prone rats, leptin dose printed 500 mg/kg/day): ineffective
body weight, normal HSD rats ([2]; normal, lean HSD rats, leptin 500 μg/kg/day, 14 days): significant and sustained reduction in body weight
